From paper PMC11984302 come the findings set out here.

This data set concerns the target thrombin (human plasma, Sigma-Aldrich) (Homo sapiens, UniProt P00734;P00734 328-363;364-622). Put plainly: EMSA; 1 nM aptamer, thrombin 0.1x-100x; SICS: thrombin in 1 M KCl (or 150 mM KCl), pH 7.5, 30 min incubation, 300 mV; gel: 16% Tris-Glycine; temperature not stated.

B1: extended TBA 1 annealed to Cy5 gap oligo (mixed)
DNA 1: TCAGCTTGCGGAGATGCGATGGTTGGTGTGGTTGGATCGAGAAAAAGGTACGCCC
DNA 2: GGGCGTACCTTTTTCTCGATATCGCATCTCCGCAAGCTGA
As for B1, the binding result is recorded as “binds”.
